Test results as given in a protein production outcome set (Wang et al. 2014).

Assay: label from the status in PepcDB records
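Also: failed if final PepcDB status was selected cloned or expressed and not failed if soluble or beyond.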

| Sequence | protein production |
| --- | --- |
| MEHTWMMKYFAEFFGTIILVVFGNGAVANSVLTKTGGNSHDGQANGGWLLIAFSFGFGVMLPAMMFGSISGNHLNPAVTLAQACAGAFPWNQVLPYILVQMLGAIVGQLLLVAVYWPFIAKTSSDDAVFASFSTGDIADSKLNGFITEFVGTAILLFVAVGLYRGMFFKQSEDIANIGVGFLITALVMAVGGPTGPALNPARDLGPRIVYALCPLPHKGSAHWDYGWIPVVAPIAGGICGALLYKLAFGL | failed |
| MEICSMSQPSSDQSVASFESKSLNILGEHIPVSELAGCEECDTVYRKVKLAAGERAYCVCCGAELYRKTRSLTSLLALVVTALIIFAIANSFPIVKVELQGNTSQTTLLGAAWTMFQIDRALVGILILFTTFIVPLLDLLLLTYILSSVGIFKQRPPYLRLALRILFLFRVWGMVEVFLIGVLVTLVKLVGMVVVIPGVALWAFAILSLLLVYIASVKIKDIWDEVDRCVP | failed |
| MEIFELILLMLSAVFLSNVLSRFLPSIAVPLIQVVLGIILAIPLGDHTMDLNPELFLLLFMAPILFNDGASTDKKSLWKNRKAILSLSIGLVFVTVGVLGAFIHYLIPAIPFAAAFALAAALAPTDAVAVGALAEKVRVPHKIMHILEGESLINDASGLVSFQFAVLALVTGTFSFMSAGTSFLLLSLGGIALGAILSLLKIMLMRGLRQLGIENMTSFMLMEILLPFLIFMVAEKVGVNGILAVVSGGMVHSFSYKGLNPEIAQLNLLSKNTWSVIIFSLNGLVFILLGTQLPQILMTIWQDANIQKGMLFVYIIGITFLLLGLRFLWILFFRNYEENPKVDLVSRLKNTFLYTVAGVRGTITLVSALSLPFVLGNGNAFPERDLLIFIAAGVIITTLLLANFTLPLFADKKDKVTADHTTDIVLLRDIVQQLQAYKTDENAVEMNKVLNMYNNRIFSLMEHKEVNATEKELRRLTQEWQLENTRRLVFERKIDTGVGLSHMMRLGKRLYVQTRAEKYRARMRYRQLLSHRFRDFRFVPLTFEERRKEIAKLQNENNLFVMQKLQDLDSNEYNPEIISLYLMNFERALGRGKNKKESNDEALQTTIDLASQIERETIQRYFEKGTITRKEMKVYRDNLLAIEANMQLEF | failed |
| MEIILLIIAAVVLFYFYNTLKEYLKNPLNPKTKTEEYDLKNDPYLLAQSSPLDKFKQTQTGAYMRLLKFLDIQKNALDNALRTLFIHELEQPLNSEQQNLAKELLNEPVDKKENFESLCQEIADHTHGEYTKRLKLVEFLMLLAYADGILDSKEKELFLDVGVFLQIDNQDFNELYDNFERFNAIEIPMSLEEAKSLFEIQTHTTKQDLEKKALDLSAPYYHKMNDNKRYSEQDFISLKKIAIASQLLENDLKDS | failed |
| MEIKNIKEFEKASKKLQKDTLKIALALLFLIGAALLALIFGQANSKGLLLIFAAVIGGYMAMNIGANDVSNNVGPAVGSKAISMGGAILIAAICEMLGAIIAGGEVVSTIKGRIVSPEFINDAHIFINVMLASLLSGALWLHVATLIGAPVSTSHSVVGGIMGAGMAAAGMVAVNWHFLSGIVASWVISPLMGALIAMFFLMLIKKTIAYKEDKKSAALKVVPYLVALMSLTFSWYLIVKVLKRLYALNFEIQLACGCILALLIFILFKRFVLKKAPQLENSHESINELFNVPLIFAAALLSFAHGANDVANAIGPLAAISQTLEDANSPIGNTLSSVPLWIMVVGAAGIALGLSLYGPKLIKTVGSEITELDKMQAFCIALSAVITVLLASQLGLPVSSTHIVVGAVFGVGFLRERLREQSRRRFARIRDNIVAAHFGEDLEEIEGFLERFDKANLKEKSLMLESLKKSKNTAIALELKKKEKKSLKKVYKEEVIKRSILKKIVTAWLVTVPVSALLGALLFVALGFIEKYF | failed |
| MEIKRFGRIREVIPLPPLTEIQVESYRRALQADVPPEKRENVGIQAAFRETFPIEEEDKGKGGLVLDFLEYRLGEPPFPQDECREKDLTYQAPLYARLQLIHKDTGLIKEDEVFLGHIPLMTEDGSFIINGADRVIVSQIHRSPGVYFTPDPARPGRYIASIIPLPKRGPWIDLEVEPNGVVSMKVNKRKFPLVLLLRVLGYDQETLARELGAYGELVQGLMDESVFAMRPEEALIRLFTLLRPGDPPKRDKAVAYVYGLIADPRRYDLGEAGRYKAEEKLGIRLSGRTLARFEDGEFKDEVFLPTLRYLFALTAGVPGHEVDDIDHLGNRRIRTVGELMTDQFRVGLARLARGVRERMLMGSEDSLTPAKLVNSRPLEAAIREFFSRSQLSQFKDETNPLSSLRHKRRISALGPGGLTRERAGFDVRDVHRTHYGRICPVETPEGANIGLITSLAAYARVDELGFIRTPYRRVVGGVVTDEVVYMTATEEDRYTIAQANTPLEGNRIAAERVVARRKGEPVIVSPEEVEFMDVSPKQVFSVNTNLIPFLEHDDANRALMGSNMQTQAVPLIRAQAPVVMTGLEERVVRDSLAALYAEEDGEVAKVDGNRIVVRYEDGRLVEYPLRRFYRSNQGTALDQRPRVVVGQRVRKGDLLADGPASENGFLALGQNVLVAIMPFDGYNFEDAIVISEELLKRDFYTSIHIERYEIEARDTKLGPERITRDIPHLSEAALRDLDEEGVVRIGAEVKPGDILVGRTSFKGESEPTPEERLLRSIFGEKARDVKDTSLRVPPGEGGIVVRTVRLRRGDPGVELKPGVREVVRVYVAQKRKLQVGDKLANRHGNKGVVAKILPVEDMPHLPDGTPVDVILNPLGVPSRMNLGQILETHLGLAGYFLGQRYISPIFDGAKEPEIKELLAQAFEVYFGKRKGEGFGVDKREVEVLRRAEKLGLVTPGKTPEEQLKELFLQGKVVLYDGRTGEPIEGPIVVGQMFIMKLYHMVEDKMHARSTGPYSLITQQPLGGKAQFGGQRFGEMEVWALEAYGAAHTLQEMLTLKSDDIEGRNAAYEAIIKGEDVPEPSVPESFRVLVKELQALALDVQTLDEKDNPVDIFEGLASKR | not failed |
| MEIKSILIANRGEIALRALRTIKEMGKKAICVYSEADKDALYLKYADASICIGKARSSESYLNIPAIIAAAEIAEADAIFPGYGFLSENQNFVEICAKHNIKFIGPSVEAMNLMSDKSKAKQVMQRAGVPVIPGSDGALAGAEAAKKLAKEIGYPVILKAAAGGGGRGMRVVENEKDLEKAYWSAESEAMTAFGDGTMYMEKYIQNPRHIEVQVIGDSFGNVIHVGERDCSMQRRHQKLIEESPAILLDEKTRTRLHETAIKAAKAIGYEGAGTFEFLVDKNLDFYFIEMNTRLQVEHCVSEMVSGIDIIEQMIKVAEGYALPSQESIKLNGHSIECRITAEDSKTFLPSPGKITKYIPPAGRNVRMESHCYQDYSVPAYYDSMIGKLVVWAEDRNKAIAKMKVALDELLISGIKTTKDFHLSMMENPDFINNNYDTNYLARH | not failed |
| MEISLLQAFALGIIAFIAGLDMFNGLTHMHRPVVLGPLVGLVLGDLHTGILTGDTLELVWMGLAPLAGAQPPNVIIGTIVGTAFAITTGVKPDVAVGVAVPFAVAVQMGITFLFSVMSGVMSRCDRMAENADTRGIERVNYLALLALGTFYFLCAFLPIYFGAEHAKTIIDVLPQRLIDGLGVAGGIMPAIGFAVLLKIMMKNVYIPYFILGFVAATWLKLPVLAIAAAALAMALIDLLRKSPEPTQPAAQKEEFEDGI | failed |
| MEISRGDFEQAYQNERNRMQAQLGDYFSNLLADPTYVASFRKSVLDRMVNDLLLEQHAASLGLRVSDEQVRQLILEIPQFQSQGVFDSTAYQATLRRAGFTPEMYAEYLRKDLVRNQLMSALQGSEFSLAGEVNLQDQLISQTRDIRTITLSLEDFAKKVTLSDEEIDQYYKTNTERFTRPEQVKVSYVELSADGLKAQVSVDDAAAQQYYQEHLDKYSTAEQRNVSHILIEGNDEQKAQAILDELNAGADFATLAKEKSQDLGSAAEGGSLGWIEPDTMDPAFEAAAFALTEKGQVSGLVKSDFGYHIIRLDDIKAPVVKPYSEVEQAIKQELIDQQALDSFYAKQSELEKMAFEHSDSLDEAAKAISATVVHTDFISAEQAPEVLTTPAVLQALKSPEVKEDGLNSEVIEVAPEHVVVVRVEEFRPETVLPLDEVKSQVVEQLSRMKGEQQALELGNQLVTALKAGETDLLAQKGVSFGELQMIDRSSPLANTVYAMVKPQEGEKVYAQAKDFDGNIVVIELSKVESKLTPAYHEQIATQLERIGSQQDLAGVISVLRQNTDIEYHIATELEHHHHHH | not failed |
| MEITDPGDFRQRIETSFARQGVVQAINAEISRIEHRLVEIELPFHEKLTQQHGILHAGVIAAGLDTACTYAAYTIIEPEASLLTIEFKVNLMSPGRGERFLFRGEIIKPGNNLIVADGRAYALSDGPAKLIASMTGTMMVVKGLEHHHHHH | not failed |
| MEKANIGFKAGIIFEKLGETGLITIAELARRLNFAADETALAAGWLARENKIYIERRNGLLYIRKELEHHHHHH | failed |
| MEKAVHSSTTSGPAVPGETTKTGTSIIDTAASAVQSFAPVNQIHQHLCAFHFYADDMARQVEAHHFCSHVNEEMRQCLIYDGPDANARLIGLEYIVSEKLFMTLPDEEKKLWHSHEWEVKGGFLFMPGVPGAIQRKDLDKVAKTYGKVFHFWQVDLGHELPIGLPNVMMAVTRDGQLFHEMIQEAEKRFGVSVEGERDSRAYMSGPELGIHPLANGGGKGMKLELREVDIKPVESVGSVFV | failed |
| MEKHSHEHHHHHDISSISKNKLFFVIIFNFIIALAEVIGGSISGSLSLISDALHNLSDTASLILSYVSIKISEKPKNKAKTYGYKRANILAAFINSAALIGISIFLGVQALEKLTSLKKINANIVIVVALIGLLGNFLSVIILKKGAEKSLNVRSSYLHMLSDAMASLAVIISGVFIKYFAIYWIDSVLTIFINMLILKSSYNILKESINILMQTTPVNLDMDDVKEQLLKIKEIKGVHHFHIWTLDENNIVLEGHIEIDDILVSETRAISDKIEHILNEDFHITHVVIQFESTSCEDNICKI | failed |
| MEKIEDQFASLHIVRRSSEPKEPTYLLGIDTSKTVQADKGGLVAVLCSNGSIRIYDKETLHLLREFGGSPGLLSGVSFANSCDSVYSASTDGTVKCWDARGASEKPVQLFKGYPSCSFISFDVNCKDHVICAGAEKVDEDALLVFWDARFTSQDLSTRDPLGAYSETHSDDITQVRFHPSNPNLVVSGSTDGLVNVFDLSADKEEDALVATCNSVSSVSCIGWCGKDYKQIYCMTHDEGFCWWDLNHLDTDEPITCLNIQDVREITDVKDGHLDYLIGGLYHEKMDRLFVIGGTNTGKIHLLSCTSAGLTHVTSLHGGHAATVRSFCWNVSEDSLLTGGEDAQLLLWKPGAMEKTFTKKDSLKIASSVQQRVRVHSSDSYKKRKQQ | failed |
| MEKILLERNWQDLEKLVLVSSKKAIRTLVNRIYIKDGLGFWRAVEALGVASALAEEQKKDSSVELVRRYFWSLNEESGGNAWNAAEAIGSIMASNPKECGHFNWMLANLLEDESLQEGTLWGLLNLSINAPEVVDPLVERVYPFLEARDVNQRGLAVWIFSLMKACPSAKERWEIEEELHKTLIQDQEMAEIYWEGEYYHFPVSELLGKEIVTFYAREYKQADFTWNISVASSQKGLCWVGLGTPEKEEGELRTWVQKRVPGSLVIPRALPNQKVMEQLEDYFSGIRQEFNLPLDPRGTDFQLKVWEELCRIPYGETRSYGEIAQNIGNPKGQRAVGLANNKNPIAIIIPCHRVVGKKGDLVGYASGLDHKVRLLNWEAAHRHQ | failed |
| MEKKFLDILVCPVTKGRLEYHQDKQELWSRQAKLAYPIKDGIPYMLENEARALSEEELKALEHHHHHH | not failed |
| MEKLSAREKPDINVAEAWEQYWNKTLVNATPVLWDANVERAVVVDLPRFQSFFDTELPLIDFACGNGTQTKFLSQFFPRVIGFDVSKTALEMASKENTAANISYRLLDGLVPEQAAQIHSEIGDANIYMRTGFHHIPVEKRELLAQSLRTLLGKQGVMYLIELGTGCIEFFNSLLEKYGKLPYELSLVMEHGIRPGIFTTEDIELYFPDFEILSQGESLFQSIHKLPDGNYATPPAFWAVIKRH | failed |
| MEKNRRGIQSVELGSRVLQALAQFGRPAGLTELAQECDMPPGKVHPYLVSFMKVGFVARDPASGLYELGHLALELGLAKLHRLDPVREASQAIADLAAETGHGTGLVVWGNLGPTLIRLEEPAHPLHVNLRIGTVMSLVHTATGRLFAAYLPAKVVSRVLEADPMGVHFGSRHQSRPAQEDYERQLSEIRSRGISRTLGSPIPGIDAFCAPVFDSMGHIAAGLLVMGPSATFDSDWDGQIATRLHACANDISRKLGYIDTPASPRAAR | failed |
